± gives the half width of the 95% confidence interval.
Tests used:
[1] = folding stability dG unfold from trypsin proteolysis; higher = more stable
In short: (§1)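 Only designs with AlphaFold2 dimer inter-PAE above 15 were retained; each was a mini-protein under 80 residues with no cysteine, in a PA-tagged cDNA display construct. After digestion with trypsin and chymotrypsin and sequencing, K50 was inferred by Bayesian fitting of counts, and unfolding free energy was derived per protease or combined against a sequence-predicted unfolded-state K50 and a shared folded-state K50.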

[2] = folding stability dG unfold (combined trypsin and chymotrypsin); higher = more stable
In short: as §1

[3] = folding stability dG unfold from chymotrypsin proteolysis; higher = more stable
In short: as §1

## SAGGIYRVEIEIPGGNTIEFMIPGATEEMAKEIANELAQHFNPGDIKIEVYPIPPVKVDPEDGKWKWSAGGS [r8_167_TrROS]
[1]
  folding stability dG unfold: 2.42 ± 0.163 kJ/mol
[2]
  folding stability dG unfold: 4.74 ± 0.397 kJ/mol
[3]
  folding stability dG unfold: 5.88 ± 0.418 kJ/mol

## SAGPIKEKTITFPNGMRAKITDIQVGPPPDGEPLIKLKVKVEMWQPKRDPDGKQDGWQPMKMEMTLIIPSAG [r5_476_TrROS]
[1]
  folding stability dG unfold: 11.2 ± 0.753 kJ/mol
[2]
  folding stability dG unfold: 14.7 ± 1.51 kJ/mol
[3]
  folding stability dG unfold: 16.4 ± 0.243 kJ/mol

## SAGGMVIIIPSPDNTVLIIEIEGDKAKIIIINPEDGSAVIIELPIEPNGDGSFILKITSIEVLEDADISAGG [r13_556_TrMRF]
[1]
  folding stability dG unfold: 12.4 ± 0.837 kJ/mol
[2]
  folding stability dG unfold: 13.7 ± 1.09 kJ/mol
[3]
  folding stability dG unfold: 14 ± 0.544 kJ/mol

## SPDVKILDIERHPDDGSISIKLKFPDGWPVTLHYNPDGSHTIHNPGNGAPIQIKYDGNQLKIELPDNLKFSA [r9_233_TrROS]
[1]
  folding stability dG unfold: 2 ± 0.0962 kJ/mol
[2]
  folding stability dG unfold: 3.05 ± 0.347 kJ/mol
[3]
  folding stability dG unfold: 3.63 ± 0.36 kJ/mol

## SAGGSAGGMVVYLQLPDKEATFFVPPSLSEEEVKERLKKALGDPDAPLTNLKIEEATPEELALESAGGSAGG [r6_122_JUSTAS]
[1]
  folding stability dG unfold: -0.638 ± 0.397 kJ/mol
[2]
  folding stability dG unfold: 0.928 ± 0.544 kJ/mol
[3]
  folding stability dG unfold: 2.15 ± 0.837 kJ/mol

## SAGKFPFMIKIEDKDGKPKDEIPIPAEELQDDPEKFLEIVETIADEFSKDGYRVKIYFPGTGQPIEIPISAG [r14_972_TrROS]
[1]
  folding stability dG unfold: 1.75 ± 0.837 kJ/mol
[2]
  folding stability dG unfold: 3.59 ± 0.837 kJ/mol
[3]
  folding stability dG unfold: 5.51 ± 0.628 kJ/mol

## SAGGAPIEAAPDEEITLTFTLTVRFRGPDGAEGTATFRLTVPVKVEPVPPVPEPRVFRLPDGSEVTLGSAGG [r13_401_TrMRF]
[1]
  folding stability dG unfold: 6.18 ± 0.238 kJ/mol
[2]
  folding stability dG unfold: 6.84 ± 0.502 kJ/mol
[3]
  folding stability dG unfold: 6.93 ± 0.502 kJ/mol

## SAGGSAGGSAMPVIELTIKVKTKEEAKKAAEELAKKLEEEFGLKVEVEYDEETKEVKVKIYPSAGGSAGGSA [r18_368_TrROS_Hall]
[1]
  folding stability dG unfold: 9.4 ± 0.502 kJ/mol
[2]
  folding stability dG unfold: 8.65 ± 0.372 kJ/mol
[3]
  folding stability dG unfold: 7.49 ± 0.285 kJ/mol

## SAGGSAKFKIVKIEKIEIEENGTIKIKVKLEDGSTFEIEIKVKIIPPPKPKKISLEELSEEERKKLSAGGSA [r15_41_TrROS_Hall]
[1]
  folding stability dG unfold: 5.41 ± 0.222 kJ/mol
[2]
  folding stability dG unfold: 7.52 ± 0.544 kJ/mol
[3]
  folding stability dG unfold: 8.81 ± 0.406 kJ/mol

## SAGGSAGGSAGMLVYRTVVTTEVLETETTSFPTPEGPYVTTTTVTVKTTVTVEKLTPELLSAGGSAGGSAGG [r11_24_JUSTAS]
[1]
  folding stability dG unfold: 11.2 ± 0.586 kJ/mol
[2]
  folding stability dG unfold: 11.5 ± 0.837 kJ/mol
[3]
  folding stability dG unfold: 10.9 ± 0.172 kJ/mol

## SAGGSAKEEIRLVIEVDGKLIEITIPKDKITKVEFDKETGKITITVKVNGKELKLVFTDGKAKLVESAGGSA [r15_598_TrROS_Hall]
[1]
  folding stability dG unfold: 9.49 ± 0.586 kJ/mol
[2]
  folding stability dG unfold: 10.3 ± 0.711 kJ/mol
[3]
  folding stability dG unfold: 10.9 ± 0.502 kJ/mol

## SAGGSVTKEELEKLNVEEVAALLPEDYTVTVVPGTGVVVISAPDRTLTITHDPATGKVTLTSEVEVSAGGSA [r2_470_JUSTAS]
[1]
  folding stability dG unfold: 5.88 ± 0.418 kJ/mol
[2]
  folding stability dG unfold: 3.33 ± 0.628 kJ/mol
[3]
  folding stability dG unfold: 0.522 ± 0.879 kJ/mol

## SAGGSVSDIVNELKKKGIKVTSIEKTEDGTYVITTELPNGVKKEYKYSTSDPKNVAALKAAIPEELVSAGGS [r16_821_JUSTAS]
[1]
  folding stability dG unfold: 6.05 ± 0.159 kJ/mol
[2]
  folding stability dG unfold: 5.67 ± 0.276 kJ/mol
[3]
  folding stability dG unfold: 4.97 ± 0.301 kJ/mol

## SAGGSAGGSAEPEKKYNVKVTFYNPNTGELVLEAEFPNMTIDEVKELAKKLGLEIVKIEVGSAGGSAGGSAG [r3_423_TrMRF]
[1]
  folding stability dG unfold: 18.3 ± 1.13 kJ/mol
[2]
  folding stability dG unfold: 18.7 ± 0.544 kJ/mol
[3]
  folding stability dG unfold: 18.5 ± 0.255 kJ/mol

## SAGGSAGGSAGGMLALIYGKEKPILLSAEEILNNPELLKELEKKGYPIVKIEFFKEEELSAGGSAGGSAGGS [r10_396_TrMRF]
[1]
  folding stability dG unfold: 4.48 ± 0.205 kJ/mol
[2]
  folding stability dG unfold: 3.42 ± 0.406 kJ/mol
[3]
  folding stability dG unfold: 2 ± 0.628 kJ/mol

## SAGGSAGGSAGGKKKIKVKVTVYNKNGKPVAEFEFEFETEEEALEAAKKLGLPVRVEKESAGGSAGGSAGGS [r10_958_TrROS_Hall]
[1]
  folding stability dG unfold: 7.17 ± 0.46 kJ/mol
[2]
  folding stability dG unfold: 9.54 ± 0.628 kJ/mol
[3]
  folding stability dG unfold: 10.8 ± 0.289 kJ/mol

## SAGGSAGGSEPVVLTLPTPRGGRITITYDPSSNTATVTLPDGTVVTLSVTSVAEAKAAALAALSAGGSAGGS [r12_866_JUSTAS]
[1]
  folding stability dG unfold: 13.3 ± 0.167 kJ/mol
[2]
  folding stability dG unfold: 14.71 ± 0.105 kJ/mol
[3]
  folding stability dG unfold: 15.47 ± 0.0753 kJ/mol

## SAGGSAGGSAGMKITIDGKVAEIEEVEVDGKLYYFIRVEGRLYVFDVETGEIREISPEDLSAGGSAGGSAGG [r11_9_TrROS_Hall]
[1]
  folding stability dG unfold: 13.1 ± 0.31 kJ/mol
[2]
  folding stability dG unfold: 16.4 ± 0.226 kJ/mol
[3]
  folding stability dG unfold: 17.41 ± 0.138 kJ/mol

## SAGGSAGGSAGMVVKVKEHPITITKLPDGSWRLTHPASGKVILLPGVDEATAKAIAEELTSAGGSAGGSAGG [r11_1085_JUSTAS]
[1]
  folding stability dG unfold: 5.28 ± 0.0628 kJ/mol
[2]
  folding stability dG unfold: 6.62 ± 0.226 kJ/mol
[3]
  folding stability dG unfold: 7.36 ± 0.113 kJ/mol

## SAGGMRVERSTSPSGEPVLLITLYLPDGTRVAEAPLRLDPARGGLTEEELEAVLKEIDLPEDVEVELRSAGG [r13_479_JUSTAS]
[1]
  folding stability dG unfold: 2.16 ± 0.46 kJ/mol
[2]
  folding stability dG unfold: 2.02 ± 0.586 kJ/mol
[3]
  folding stability dG unfold: 1.96 ± 0.669 kJ/mol

## SSMYLLTVEITRPDGSVSSKTVPVNFAPGTTIDELLKALNLPKSSLATVTVTATEYSGGPPVTSTHTITLSA [r9_755_JUSTAS]
[1]
  folding stability dG unfold: 8.47 ± 0.272 kJ/mol
[2]
  folding stability dG unfold: 9.78 ± 0.251 kJ/mol
[3]
  folding stability dG unfold: 10.2 ± 0.218 kJ/mol

— the supplement of paper PMC12764529
